In US20130338077A1 (INDIANA UNIVERSITY RESEARCH AND TECHNOLOGY, published 2013):

Target: T1, recombinant human p65 protein, full-length, with DDK (r-p65:DDK) (human, UniProt Q04206 1-551)
T1 construct: mature; also called full-length r-p65:DDK; p65 subunit of NF-kB; not shown: DDK tag
Assay: kinetic ELISA, plate-bound GILZ-P probed with r-p65:DDK; Scatchard plot and linear regression; plate-bound GILZ-P (synthetic peptide), not r-GILZ

T1 sequence (Q04206 whole entry): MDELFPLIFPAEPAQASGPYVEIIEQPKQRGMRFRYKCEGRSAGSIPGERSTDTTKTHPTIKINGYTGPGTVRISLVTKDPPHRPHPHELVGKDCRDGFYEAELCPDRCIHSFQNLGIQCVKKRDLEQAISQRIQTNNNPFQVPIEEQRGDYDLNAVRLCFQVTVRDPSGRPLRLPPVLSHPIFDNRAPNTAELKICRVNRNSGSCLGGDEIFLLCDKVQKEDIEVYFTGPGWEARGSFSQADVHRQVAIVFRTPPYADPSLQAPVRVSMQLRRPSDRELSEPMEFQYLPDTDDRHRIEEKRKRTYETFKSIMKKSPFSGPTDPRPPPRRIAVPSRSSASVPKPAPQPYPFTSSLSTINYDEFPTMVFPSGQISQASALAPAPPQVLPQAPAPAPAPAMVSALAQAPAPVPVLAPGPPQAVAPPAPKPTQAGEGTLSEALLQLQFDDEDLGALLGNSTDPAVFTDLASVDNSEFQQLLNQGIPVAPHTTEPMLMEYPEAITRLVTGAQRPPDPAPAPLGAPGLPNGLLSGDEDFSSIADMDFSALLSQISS

Kd: 1120 nM
Binder: Ac-CLSPEEPAPESPQVPEAPGGSAV-NH2 (also called GILZ-WT; GILZ-P115-137) [GILZ-peptide (GILZ-P), synthetic peptide from the carboxy terminus of GILZ]
